Measured values reported in US20240043495A1, “DSG2 COMPOSITIONS AND METHODS FOR THE TREATMENT OF COVID-19” (priority 2020, published 2024).

B1: DSG2FP#2: DSG2 extracellular domain (amino acids 50-609 of SEQ ID NO: 1); amino acids 104-330 of IgG1 (L234A, L235A, P329G) (SEQ ID NO: 31) (protein)
chain: AWITAPVALREGEDLSKKNPIAKIHSDLAEERGLKITYKYTGKGITEPPFGIFVFNKDTGELNVTSILDREETPFFLLTGYALDARGNNVEKPLELRIKVLDINDNEPVFTQDVFVGSVEELSAAHTLVMKINATDADEPNTLNSKISYRIVSLEPAYPPVFYLNKDTGEIYTTSVTLDREEHSSYTLTVEARDGNGEVTDKPVKQAQVQIRILDVNDNIPVVENKVLEGMVEENQVNVEVTRIKVFDADEIGSDNWLANFTFASGNEGGYFHIETDAQTNEGIVTLIKEVDYEEMKNLDFSVIVANKAAFHKSIRSKYKPTPIPIKVKVKNVKEGIHFKSSVISIYVSESMDRSSKGQIIGNFQAFDEDTGLPAHARYVKLEDRDNWISVDSVTSEIKLAKLPDFESRYVQNGTYTVKIVAISEDYPRKTITGTVLINVEDINDNCPTLIEPVQTICHDAEYVNVTAEDLDGHPNSGPFSFSVIDKPPGMAEKWKIARQESTSVLLQQSEKKLGRSEIQFLISDNQGFSCPEKQVLTLTVCECLHGSGCREAQHDSYVGDKTHTCPPCPAPEAAGGPSVFLFPPKPKDTLMISRTPEVTCVVVDVSHEDPEVKFNWYVDGVEVHNAKTKPREEQYNSTYRVVSVLTVLHQDWLNGKEYKCKVSNKALGAPIEKTISKAKGQPREPQVYTLPPSRDELTKNQVSLTCLVKGFYPSDIAVEWESNGQPENNYKTTPPVLDSDGSFFLYSKLTVDKSRWQQGNVFSCSVMHEALHNHYTQKSLSLSPGK
B2: DSG2FP#4: DSG2 extracellular domain (50-609 of SEQ ID NO: 1); linker EAAAK; amino acids 104-330 of IgG1 (L234A, L235A, P329G) (protein)
chain: AWITAPVALREGEDLSKKNPIAKIHSDLAEERGLKITYKYTGKGITEPPFGIFVFNKDTGELNVTSILDREETPFFLLTGYALDARGNNVEKPLELRIKVLDINDNEPVFTQDVFVGSVEELSAAHTLVMKINATDADEPNTLNSKISYRIVSLEPAYPPVFYLNKDTGEIYTTSVTLDREEHSSYTLTVEARDGNGEVTDKPVKQAQVQIRILDVNDNIPVVENKVLEGMVEENQVNVEVTRIKVFDADEIGSDNWLANFTFASGNEGGYFHIETDAQTNEGIVTLIKEVDYEEMKNLDFSVIVANKAAFHKSIRSKYKPTPIPIKVKVKNVKEGIHFKSSVISIYVSESMDRSSKGQIIGNFQAFDEDTGLPAHARYVKLEDRDNWISVDSVTSEIKLAKLPDFESRYVQNGTYTVKIVAISEDYPRKTITGTVLINVEDINDNCPTLIEPVQTICHDAEYVNVTAEDLDGHPNSGPFSFSVIDKPPGMAEKWKIARQESTSVLLQQSEKKLGRSEIQFLISDNQGFSCPEKQVLTLTVCECLHGSGCREAQHDSYVGEAAAKDKTHTCPPCPAPEAAGGPSVFLFPPKPKDTLMISRTPEVTCVVVDVSHEDPEVKFNWYVDGVEVHNAKTKPREEQYNSTYRVVSVLTVLHQDWLNGKEYKCKVSNKALGAPIEKTISKAKGQPREPQVYTLPPSRDELTKNQVSLTCLVKGFYPSDIAVEWESNGQPENNYKTTPPVLDSDGSFFLYSKLTVDKSRWQQGNVFSCSVMHEALHNHYTQKSLSLSPGK
B3: DSG2FP#3: DSG2 extracellular domain (50-609 of SEQ ID NO: 1); linker GGGGS; amino acids 104-330 of IgG1 (L234A, L235A, P329G) (protein)
chain: AWITAPVALREGEDLSKKNPIAKIHSDLAEERGLKITYKYTGKGITEPPFGIFVFNKDTGELNVTSILDREETPFFLLTGYALDARGNNVEKPLELRIKVLDINDNEPVFTQDVFVGSVEELSAAHTLVMKINATDADEPNTLNSKISYRIVSLEPAYPPVFYLNKDTGEIYTTSVTLDREEHSSYTLTVEARDGNGEVTDKPVKQAQVQIRILDVNDNIPVVENKVLEGMVEENQVNVEVTRIKVFDADEIGSDNWLANFTFASGNEGGYFHIETDAQTNEGIVTLIKEVDYEEMKNLDFSVIVANKAAFHKSIRSKYKPTPIPIKVKVKNVKEGIHFKSSVISIYVSESMDRSSKGQIIGNFQAFDEDTGLPAHARYVKLEDRDNWISVDSVTSEIKLAKLPDFESRYVQNGTYTVKIVAISEDYPRKTITGTVLINVEDINDNCPTLIEPVQTICHDAEYVNVTAEDLDGHPNSGPFSFSVIDKPPGMAEKWKIARQESTSVLLQQSEKKLGRSEIQFLISDNQGFSCPEKQVLTLTVCECLHGSGCREAQHDSYVGGGGGGSDKTHTCPPCPAPEAAGGPSVFLFPPKPKDTLMISRTPEVTCVVVDVSHEDPEVKFNWYVDGVEVHNAKTKPREEQYNSTYRVVSVLTVLHQDWLNGKEYKCKVSNKALGAPIEKTISKAKGQPREPQVYTLPPSRDELTKNQVSLTCLVKGFYPSDIAVEWESNGQPENNYKTTPPVLDSDGSFFLYSKLTVDKSRWQQGNVFSCSVMHEALHNHYTQKSLSLSPGK

Legend:
[1] = Dynamic light scattering (DLS) of DSG2 fusion polypeptides; format: physicochemical; conditions: for PDI: polymer distribution index
Text: 6 candidates were compared to the reference sample.

anti-DSG2 antibody = assay: Anti-DSG2 antibody Meso Scale Discovery (MSD) blocking assay, anti-DSG2 antibody controls; format: binding; conditions: for ability to bind to and block anti-DSG2 antibody: MSD assay; for % inhibition: fraction C
Protocol: (§1) The DSG2 fusion polypeptides were tested for the ability to block anti-DSG2 antibody by an anti-DSG2 antibody Meso Scale Discovery (MSD) assay. […] The DSG2 fusion polypeptides were subjected to size exclusion chromatography and different elution fractions were examined. […] As shown in Table 9 and FIG. 4B, FIG. 4C, and FIG. 4D, enriching for fraction C improved the ability of the DSG2 fusion polypeptides to block ARVC patient serum.

[2] = Melting temperature Tm of DSG2 fusion polypeptides; format: physicochemical
Text: As the temperature increased, the aggregates began to move, unfold and spread apart.

[3] = system: ARVC serum (serum obtained from ARVC patients); assay: Anti-DSG2 antibody Meso Scale Discovery (MSD) blocking assay, ARVC serum; format: binding, human; conditions: for % inhibition: fraction C; for effect of enriching for fraction C on ability to block ARVC patient serum: size exclusion fraction C vs whole preparation, FIG. 4B-4D
Protocol: as §1

[4] = sample: Anti-DSG2 antibody (200 ng/mL) control
[5] = sample: Anti-DSG2 antibody (1000 ng/mL) control

Molecule	Peak 1 mass % [1] [%]	Peak 1 mode diameter [1] [nm]	PDI [1]	ability to bind to and block anti-DSG2 antibody (anti-DSG2 antibody)	Tm1 [2] [°C]	Tm2 [2] [°C]	% inhibition (anti-DSG2 antibody; [4]) [%]	% inhibition (anti-DSG2 antibody; [5]) [%]	% inhibition (anti-DSG2 antibody; sample: no antibody control) [%]	% inhibition ([3]; sample: ARVC serum 1) [%]	% inhibition ([3]; sample: ARVC serum 2) [%]	% inhibition ([3]; sample: ARVC serum 3) [%]	% inhibition ([3]; sample: ARVC serum 4) [%]	% inhibition ([3]; sample: ARVC serum 5) [%]	effect of enriching for fraction C on ability to block ARVC patient serum [3]	Tm3 [2] [°C]
DSG2FP#5: amino acids 104-330 of IgG1 (L234A, L235A, P329G; SEQ ID NO: 31); DSG2 extracellular domain (50-609 of SEQ ID NO: 1)	~99	76.72	0.31	able to bind to and block anti-DSG2 antibodies	65.0	–	–	–	–	–	–	–	–	–	–	–
DSG2FP#6: DSG2 extracellular domain (50-609 of SEQ ID NO: 1); amino acids 99-327 of IgG4 (S228P, L235E, P329G) (SEQ ID NO: 32)	~99	98.03	0.32	able to bind to and block anti-DSG2 antibodies	51.1	60.0	–	–	–	–	–	–	–	–	–	–
DSG2FP#7: DSG2 extracellular domain (50-609 of SEQ ID NO: 1); GGGGS peptide linker; IgG4 Fc (S228P, L235E, P329G) (SEQ ID NO: 32)	~97	86.23	0.30	able to bind to and block anti-DSG2 antibodies	53.4	60.0	–	–	–	–	–	–	–	–	–	–
B1	~96	40.04	0.32	able to bind to and block anti-DSG2 antibodies	52.0	61.9	54.5	81.6	−19.1	3.0	33.5	26.0	51.1	41.8	more pronounced	81.9
B2	~96	44.87	0.32	able to bind to and block anti-DSG2 antibodies	50.7	63.1	61.2	85.5	0.7	6.0	9.2	−8.0	0.8	2.0	–	81.5
B3	~91	43.23	0.30	able to bind to and block anti-DSG2 antibodies	51.3	62.8	61.2	85.5	0.7	9.2	27.6	15.5	−5.6	20.6	more pronounced	82.1
